{"source": "patent US6420338B1", "about": "“Inhibition of the Src kinase family pathway as a method of treating HBV infection and hepatocellular carcinoma” (New York University Medical Center, priority 1997, dated 2002)", "molecules": {"B1": {"name": "Csk: Csk (carboxyl-terminal Src kinase), a specific physiologic inhibitor of Src kinase, expressed from a CMV promoter plasmid (protein, UniProt P41240 2-450, looked up)", "Tyrosine-protein kinase CSK": "SAIQAAWPSGTECIAKYNFHGTAEQDLPFCKGDVLTIVAVTKDPNWYKAKNKVGREGIIPANYVQKREGVKAGTKLSLMPWFHGKITREQAERLLYPPETGLFLVRESTNYPGDYTLCVSCDGKVEHYRIMYHASKLSIDEEVYFENLMQLVEHYTSDADGLCTRLIKPKVMEGTVAAQDEFYRSGWALNMKELKLLQTIGKGEFGDVMLGDYRGNKVAVKCIKNDATAQAFLAEASVMTQLRHSNLVQLLGVIVEEKGGLYIVTEYMAKGSLVDYLRSRGRSVLGGDCLLKFSLDVCEAMEYLEGNNFVHRDLAARNVLVSEDNVAKVSDFGLTKEASSTQDTGKLPVKWTAPEALREKKFSTKSDVWSFGILLWEIYSFGRVPYPRIPLKDVVPRVEKGYKMDAPDGCPPAVYEVMKNCWHLDAAMRPSFLQLREQLEHIKTHELHL"}}, "key": {"N-Myc": {"system": "N-Myc", "assay": "N-Myc immunoblot of nuclear extracts of Chang cells expressing HBx", "assay_type": "cell-based", "settings": "Chang cells co-expressing HBx; serum-starved 20 hours", "procedure": "Cells were lysed in 1% Triton, 20 mM Hepes pH 7.4, 150 mM NaCl, 10% Glycerol, 1 mM Na3VO4, 50 mM NaF, 1 mM PMSF, 10 μg/ml aprotinin, and 10 μg/ml leupeptin. Equal amounts of protein were immunoprecipitated on ice for 2 hours and the immune complexes were collected by incubation with protein A-agarose (Santa Cruz) for 60 minutes at 4° C. Immunoprecipitates were washed three times with HNTG (20 mM Hepes pH 7.4, 150 mM NaCl, 0.1% Triton, and 10% Glycerol), resuspended in Laemmli sample buffer, heated to 95° C. for 10 minutes, resolved by electrophoresis on SDS-polyacrylamide gels, and immunoblotted to nitrocellulose using standard techniques (Harlow and Lane, 1988, Antibodies: A Laboratory Manual (Cold Spring Harbor, N.Y.; CSH Laboratory Press)). Immunoblots were visualized using the ECL chemiluminescence system (Amersham).\nNuclear extracts were prepared according to a modified Dignam protocol (Su and Schneider, 1996). Cell pellets were resuspended in 250 μl of cold Buffer A (10 mM Hepes pH 7.9, 1.5 mM MgCl2, 10 mM KCl, 0.5 mM DTT, 1 mM PMSF, 10 μg/ml leupeptin and 10 μg/ml aprotinin), swollen on ice for 10 min, vortexed for 10 sec, and centrifuged for 10 sec at 12,000×g. […]"}, "MAP kinase (ERK2)": {"system": "MAP kinase (ERK2)", "assay": "MAP kinase (ERK2) MBP kinase assay in Chang cells transfected with wtWHV", "assay_type": "cell-based", "settings": "Chang cells co-transfected with wtWHV; serum-starved", "procedure": "FIG. 6. Woodchuck Hepatitis B Virus (WHV) HBx protein (WHx) activates a Src-Ras signaling cascade during WHV replication in cultured cells. […] Eighteen hours post-transfection, cells were serum-starved in 0.5% CS for 20 hours, MAP kinase (ERK-2) was immunoprecipitated from equal amounts of cell lysates and pellets were subjected to an in vitro MBP kinase assay.\nTo assay for MAP kinase activity, cells were lysed in freshly prepared lysis buffer (10 mM Tris HCl pH 7.5, 1% Triton X-100, 0.5% NP-40, 1 mM EDTA, 1 mM EGTA, 1 mM Na3VO4, 50 mM NaF, 1 mM PMSF, 40 mM PPi, 10 μg/ml aprotinin, and 10 μg/ml leupeptin) and MAP kinase was immunoprecipitated using 1 μg/ml anti-ERK2 antibodies from equal amounts of protein. After 4 washes with lysis buffer, and 2 with kinase buffer (20 mM Hepes pH 7.4, 10 mM MgCl2), the immunoprecipitates were incubated with kinase buffer including 0.5 mg/ml myelin basic protein (MBP, Sigma), 10 mM ATP and 5 μCi [γ-^32P]ATP for 30 minutes at 30° C. […]\nTo determine whether WHx also requires activation of Src family kinases for stimulation of Ras signaling during ongoing viral replication, Chang cells were co-transfected with plasmids synthesizing wtWHV and dominant-negative Ras (RasDN), dominant-negative Src (SrcK^−), or Csk proteins, and activation of MAP kinase was measured. […]"}}}
{"molecule": "B1", "values": [{"measurement": "effect on increase in N-Myc protein by HBx", "setting": "N-Myc", "result": "impaired"}, {"measurement": "effect on downstream activation of MAP kinase by wtWHV", "setting": "MAP kinase (ERK2)", "result": "efficiently inhibited"}]}
